This assay deals with MBP-Spt16 (budding yeast, UniProt P32558 1-1035). Put plainly: pull-down.
Chain of MBP-Spt16 (P32558 whole entry): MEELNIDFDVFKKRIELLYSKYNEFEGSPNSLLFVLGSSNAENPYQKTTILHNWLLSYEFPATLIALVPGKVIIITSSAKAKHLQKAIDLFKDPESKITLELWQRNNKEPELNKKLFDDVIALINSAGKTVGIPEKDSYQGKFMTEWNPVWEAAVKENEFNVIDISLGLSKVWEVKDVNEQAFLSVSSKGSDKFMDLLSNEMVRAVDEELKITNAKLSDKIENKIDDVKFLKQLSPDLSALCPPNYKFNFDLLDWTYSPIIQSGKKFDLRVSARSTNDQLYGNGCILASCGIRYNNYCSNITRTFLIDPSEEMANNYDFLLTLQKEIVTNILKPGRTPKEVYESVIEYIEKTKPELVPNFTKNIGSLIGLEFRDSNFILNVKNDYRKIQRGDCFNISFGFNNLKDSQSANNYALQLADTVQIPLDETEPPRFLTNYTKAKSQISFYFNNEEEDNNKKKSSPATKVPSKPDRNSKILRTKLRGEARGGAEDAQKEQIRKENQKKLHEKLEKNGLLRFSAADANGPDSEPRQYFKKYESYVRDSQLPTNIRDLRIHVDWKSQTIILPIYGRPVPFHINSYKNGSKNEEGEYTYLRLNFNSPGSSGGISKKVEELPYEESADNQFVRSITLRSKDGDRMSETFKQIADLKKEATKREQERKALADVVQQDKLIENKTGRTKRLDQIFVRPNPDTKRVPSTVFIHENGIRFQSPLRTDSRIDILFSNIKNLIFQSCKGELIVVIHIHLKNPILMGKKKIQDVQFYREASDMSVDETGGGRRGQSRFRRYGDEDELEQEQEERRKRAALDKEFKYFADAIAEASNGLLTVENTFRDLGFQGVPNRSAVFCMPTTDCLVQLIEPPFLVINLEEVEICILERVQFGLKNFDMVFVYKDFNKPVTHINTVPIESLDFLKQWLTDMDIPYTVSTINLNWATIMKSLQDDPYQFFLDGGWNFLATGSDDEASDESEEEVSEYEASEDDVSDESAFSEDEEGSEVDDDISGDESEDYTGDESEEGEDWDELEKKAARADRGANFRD

B1: GST-Psh1, full-length [FL (1-406)] (enzyme, budding yeast, UniProt Q12161 1-406, looked up)
chain: MGDELHNRLLHQNDGTKDAILYKIIESLVCSICHDYMFVPMMTPCGHNYCYGCLNTWFASNTQKELACPQCRSDITTIPALNTTLQQYLSFILEKLRDQNDESFKKLLTTKTKEENDYKNDKEKDTLFDKVFKNSALAVADDSDDGITRCSNCHWELDPDEVEDGNVCPHCNARIRNYAGGRDEFDEEEYSEGELDEIRESMRRRRENRFASTNPFANRDDVSSEDDDSSEEEPMREHIPLGRWARSHNRSIAVDAVDDEDDEEEDEEEEEEMDSDLKDFIEDDEDDEDEDGSRRNLVLSALKNRHVIITDDEEEEQRRHATEEEDRDSDFYEHNDDGFVSGDSLDEDQKEVTRIQSSSDSEDRSLSYSGSSDVKDNNDDNTEELDDPQPKRQKRFRVVLGDSDDE
For B1, the binding result is given as “binds”.
